Results as given in US12662524B2.
Where “and” joins values, the source holds several entries; their conditions need not be identical. Equal entries are not always repeated.

Experiments:
[1] = substrate: CP C3-convertase (C4b2a) (Homo sapiens (Human)) (UniProt P0C0L4)
[2] = target: C3b (Homo sapiens (Human)) (UniProt P01024)
[3] = target: AP C3-convertase (C3bBb) (Homo sapiens (Human)) (UniProt P01024)
[4] = target: C4b (Homo sapiens (Human)) (UniProt P0C0L4)
C4b (Homo sapiens (Human)), sequence (P0C0L4 757-1446 limits assumed, chain 1 of 2): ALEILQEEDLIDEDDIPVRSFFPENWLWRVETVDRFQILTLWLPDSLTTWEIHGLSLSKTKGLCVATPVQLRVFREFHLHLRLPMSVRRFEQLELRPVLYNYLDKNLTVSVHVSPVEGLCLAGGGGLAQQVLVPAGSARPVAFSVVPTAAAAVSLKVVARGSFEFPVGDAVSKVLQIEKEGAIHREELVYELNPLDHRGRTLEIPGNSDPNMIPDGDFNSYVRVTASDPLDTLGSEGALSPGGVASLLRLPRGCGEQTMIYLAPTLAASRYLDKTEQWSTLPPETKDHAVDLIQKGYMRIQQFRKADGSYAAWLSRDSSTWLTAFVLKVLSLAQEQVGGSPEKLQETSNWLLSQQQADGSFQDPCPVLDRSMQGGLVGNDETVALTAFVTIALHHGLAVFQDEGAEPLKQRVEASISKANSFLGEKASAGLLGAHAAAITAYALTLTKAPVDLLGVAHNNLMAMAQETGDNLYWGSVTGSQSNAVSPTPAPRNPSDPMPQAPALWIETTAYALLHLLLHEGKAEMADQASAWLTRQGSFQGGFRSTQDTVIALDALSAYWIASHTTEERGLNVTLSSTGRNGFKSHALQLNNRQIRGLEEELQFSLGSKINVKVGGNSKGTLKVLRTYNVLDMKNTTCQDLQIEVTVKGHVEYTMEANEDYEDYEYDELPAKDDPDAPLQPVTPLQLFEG
C4b (Homo sapiens (Human)), sequence (P0C0L4 20-675 limits assumed, chain 2 of 2): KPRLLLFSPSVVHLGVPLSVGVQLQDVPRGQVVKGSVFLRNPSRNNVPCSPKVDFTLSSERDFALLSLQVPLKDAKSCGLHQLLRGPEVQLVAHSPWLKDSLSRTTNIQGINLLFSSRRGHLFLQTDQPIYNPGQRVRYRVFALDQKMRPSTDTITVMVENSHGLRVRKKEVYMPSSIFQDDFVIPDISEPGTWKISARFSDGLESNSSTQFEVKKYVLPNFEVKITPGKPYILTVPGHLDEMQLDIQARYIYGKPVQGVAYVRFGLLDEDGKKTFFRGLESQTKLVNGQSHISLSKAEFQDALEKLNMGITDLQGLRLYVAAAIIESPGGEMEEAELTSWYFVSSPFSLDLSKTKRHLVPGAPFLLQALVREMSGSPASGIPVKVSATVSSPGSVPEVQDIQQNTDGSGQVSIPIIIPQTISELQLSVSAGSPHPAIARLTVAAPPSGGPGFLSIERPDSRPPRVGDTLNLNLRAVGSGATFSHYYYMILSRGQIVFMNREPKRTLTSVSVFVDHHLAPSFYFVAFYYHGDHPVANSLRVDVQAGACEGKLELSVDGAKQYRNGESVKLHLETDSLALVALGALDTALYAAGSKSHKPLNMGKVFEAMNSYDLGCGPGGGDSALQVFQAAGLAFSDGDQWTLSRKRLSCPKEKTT

Binder	CP-DAA IC50 [1]	C3b CFA: time (min.) for 50% cleavage of C3b α′-chain [2]	AP-DAA IC50 [3]	C4b CFA: time (min.) for 50% cleavage of C4b α-chain [4]
D2D3M3M4 (Multi-4) (protein) CEVPTRLNSASLKQPYITQNYFPVGTVVEYECRPGYRREPSLSPKLTCLQNLKWSTAVEFCKKKSCPNPGEIRNGQIDVPGGILFGATISFSCNTGYKLIGKTSSFCLISGSSVQWSDKLPICEKVLCTPPPKIKNGKHTFSEVEVFEYLDAVTYSCDPAPGPDPFSLIGESTIYCGDNSVWSRAAPECKVVKCRFPVVENGKQISGFGKKFYYKATVMFECDKGFYLDGSDTIVCDSNSTWDPPVPKCLKVL	39.3 nM	17.5 min	> 10 nM	5.5 min
D2D3M3M4 (P216K) (protein) CEVPTRLNSASLKQPYITQNYFPVGTVVEYECRPGYRREPSLSPKLTCLQNLKWSTAVEFCKKKSCPNPGEIRNGQIDVPGGILFGATISFSCNTGYKLFGSTSSFCLISGSSVQWSDKLPECREIYCTPPPKIKNGKHTFSEVEVFEYLDAVTYSCDPAPGPDPFSLIGESTIYCGDNSVWSRAAPECKVVKCRFPVVENGKQISGFGKKFYYKATVMFECDKGFYLDGSDTIVCDSNSTWDPPVPKCLKVL	21 nM	30.1 min	3.4 nM	93 min
D2D3M3M4 (F197I) (protein) CEVPTRLNSASLKQPYITQNYFPVGTVVEYECRPGYRREPSLSPKLTCLQNLKWSTAVEFCKKKSCPNPGEIRNGQIDVPGGILFGATISFSCNTGYKLIGSTSSFCLISGSSVQWSDPLPECREIYCTPPPKIKNGKHTFSEVEVFEYLDAVTYSCDPAPGPDPFSLIGESTIYCGDNSVWSRAAPECKVVKCRFPVVENGKQISGFGKKFYYKATVMFECDKGFYLDGSDTIVCDSNSTWDPPVPKCLKVL	30.7 nM	49.8 min	4.4 nM	66.7 min
D2D3M3M4 (T200Y) (protein) CEVPTRLNSASLKQPYITQNYFPVGTVVEYECRPGYRREPSLSPKLTCLQNLKWSTAVEFCKKKSCPNPGEIRNGQIDVPGGILFGATISFSCNTGYKLFGSYSSFCLISGSSVQWSDPLPECREIYCTPPPKIKNGKHTFSEVEVFEYLDAVTYSCDPAPGPDPFSLIGESTIYCGDNSVWSRAAPECKVVKCRFPVVENGKQISGFGKKFYYKATVMFECDKGFYLDGSDTIVCDSNSTWDPPVPKCLKVL	17.7 nM	103 min	3.7 nM	513 min
D2D3M3M4 (protein) CEVPTRLNSASLKQPYITQNYFPVGTVVEYECRPGYRREPSLSPKLTCLQNLKWSTAVEFCKKKSCPNPGEIRNGQIDVPGGILFGATISFSCNTGYKLFGSTSSFCLISGSSVQWSDPLPECREIYCTPPPKIKNGKHTFSEVEVFEYLDAVTYSCDPAPGPDPFSLIGESTIYCGDNSVWSRAAPECKVVKCRFPVVENGKQISGFGKKFYYKATVMFECDKGFYLDGSDTIVCDSNSTWDPPVPKCLKVL	5.1 nM and 15.9 nM	80.7 min and 82.6 min	2.4 nM and 2.1 nM	429 min and 465 min
D2D3M3M4 (Multi-1) (protein) CEVPTRLNSASLKQPYITQNYFPVGTVVEYECRPGYRREPSLSPKLTCLQNLKWSTAVEFCKKKSCPNPGEIRNGQIDVPGGILFGATISFSCNTGYKLFGSTSSFCLISGSSVQWSDPLPICEKVLCTPPPKIKNGKHTFSEVEVFEYLDAVTYSCDPAPGPDPFSLIGESTIYCGDNSVWSRAAPECKVVKCRFPVVENGKQISGFGKKFYYKATVMFECDKGFYLDGSDTIVCDSNSTWDPPVPKCLKVL	22.6 nM	27.3 min	1.9 nM	443 min
D2D3M3M4 (K195Y) (protein) CEVPTRLNSASLKQPYITQNYFPVGTVVEYECRPGYRREPSLSPKLTCLQNLKWSTAVEFCKKKSCPNPGEIRNGQIDVPGGILFGATISFSCNTGYYLFGSTSSFCLISGSSVQWSDPLPECREIYCTPPPKIKNGKHTFSEVEVFEYLDAVTYSCDPAPGPDPFSLIGESTIYCGDNSVWSRAAPECKVVKCRFPVVENGKQISGFGKKFYYKATVMFECDKGFYLDGSDTIVCDSNSTWDPPVPKCLKVL	> 100 nM	–	> 10 nM	> 540 min
D2D3M3M4 (Multi-5) or DCP (protein) CEVPTRLNSASLKQPYITQNYFPVGTVVEYECRPGYRREPSLSPKLTCLQNLKWSTAVEFCKKKSCPNPGEIRNGQIDVPGGILFGATISFSCNTGYKLIGSTSSFCLISGSSVQWSDKLPICEKVLCTPPPKIKNGKHTFSEVEVFEYLDAVTYSCDPAPGPDPFSLIGESTIYCGDNSVWSRAAPECKVVKCRFPVVENGKQISGFGKKFYYKATVMFECDKGFYLDGSDTIVCDSNSTWDPPVPKCLKVL	12.7 nM	3.3 min	2.4 nM	3.1 min
D2D3M3M4 (L205K) (protein) CEVPTRLNSASLKQPYITQNYFPVGTVVEYECRPGYRREPSLSPKLTCLQNLKWSTAVEFCKKKSCPNPGEIRNGQIDVPGGILFGATISFSCNTGYKLFGSTSSFCKISGSSVQWSDPLPECREIYCTPPPKIKNGKHTFSEVEVFEYLDAVTYSCDPAPGPDPFSLIGESTIYCGDNSVWSRAAPECKVVKCRFPVVENGKQISGFGKKFYYKATVMFECDKGFYLDGSDTIVCDSNSTWDPPVPKCLKVL	9.2 nM	104 min	> 10 nM	433 min
D2D3M3M4 (S199K) (protein) CEVPTRLNSASLKQPYITQNYFPVGTVVEYECRPGYRREPSLSPKLTCLQNLKWSTAVEFCKKKSCPNPGEIRNGQIDVPGGILFGATISFSCNTGYKLFGKTSSFCLISGSSVQWSDPLPECREIYCTPPPKIKNGKHTFSEVEVFEYLDAVTYSCDPAPGPDPFSLIGESTIYCGDNSVWSRAAPECKVVKCRFPVVENGKQISGFGKKFYYKATVMFECDKGFYLDGSDTIVCDSNSTWDPPVPKCLKVL	21.7 nM	18.9 min	6.6 nM	181 min
D2D3M3M4 (T192E) (protein) CEVPTRLNSASLKQPYITQNYFPVGTVVEYECRPGYRREPSLSPKLTCLQNLKWSTAVEFCKKKSCPNPGEIRNGQIDVPGGILFGATISFSCNEGYKLFGSTSSFCLISGSSVQWSDPLPECREIYCTPPPKIKNGKHTFSEVEVFEYLDAVTYSCDPAPGPDPFSLIGESTIYCGDNSVWSRAAPECKVVKCRFPVVENGKQISGFGKKFYYKATVMFECDKGFYLDGSDTIVCDSNSTWDPPVPKCLKVL	15.3 nM	74.3 min	2.3 nM	268 min
D2D3D4M4 (protein) CEVPTRLNSASLKQPYITQNYFPVGTVVEYECRPGYRREPSLSPKLTCLQNLKWSTAVEFCKKKSCPNPGEIRNGQIDVPGGILFGATISFSCNTGYKLFGSTSSFCLISGSSVQWSDPLPECREIYCPAPPQIDNGIIQGERDHYGYRQSVTYACNKGFTMIGEHSIYCTVNNDEGEWSGPPPECRGKSCRFPVVENGKQISGFGKKFYYKATVMFECDKGFYLDGSDTIVCDSNSTWDPPVPKCLKVL	5.7 nM	–	5.6 nM	–
D2M2-4 (protein) CEVPTRLNSASLKQPYITQNYFPVGTVVEYECRPGYRREPSLSPKLTCLQNLKWSTAVEFCKKKSCPYIRDPLNGQAVPANGTYEFGYQMHFICNEGYYLIGEEILYCELKGSVAIWSGKPPICEKVLCTPPPKIKNGKHTFSEVEVFEYLDAVTYSCDPAPGPDPFSLIGESTIYCGDNSVWSRAAPECKVVKCRFPVVENGKQISGFGKKFYYKATVMFECDKGFYLDGSDTIVCDSNSTWDPPVPKCLKVL	457 nM	–	> 10 nM	–
D2M2-4 (ML) (protein) CEVPTRLNSASLKQPYITQNYFPVGTVVEYECRPGYRREPSLSPKLTCLQNLKWSTAVEFCYRETCPYIRDPLNGQAVPANGTYEFGYQMHFICNEGYYLIGEEILYCELKGSVAIWSGKPPICEKVLCTPPPKIKNGKHTFSEVEVFEYLDAVTYSCDPAPGPDPFSLIGESTIYCGDNSVWSRAAPECKVVKCRFPVVENGKQISGFGKKFYYKATVMFECDKGFYLDGSDTIVCDSNSTWDPPVPKCLKVL	> 1000 nM	–	> 10 nM	–
D2D3 (protein) CEVPTRLNSASLKQPYITQNYFPVGTVVEYECRPGYRREPSLSPKLTCLQNLKWSTAVEFCKKKSCPNPGEIRNGQIDVPGGILFGATISFSCNTGYKLFGSTSSFCLISGSSVQWSDPLPECREIY	10.9 nM	–	> 10 nM	–
decay-accelerating factor (DAF; CD55) (protein) CGLPPDVPNAQPALEGRTSFPEDTVITYKCEESFVKIPGEKDSVICLKGSQWSDIEEFCNRSCEVPTRLNSASLKQPYITQNYFPVGTVVEYECRPGYRREPSLSPKLTCLQNLKWSTAVEFCKKKSCPNPGEIRNGQIDVPGGILFGATISFSCNTGYKLFGSTSSFCLISGSSVQWSDPLPECREIYCPAPPQIDNGIIQGERDHYGYRQSVTYACNKGFTMIGEHSIYCTVNNDEGEWSGPPPECRGKS	16.5 nM and 14.5 nM and 2.6 nM	–	1.1 nM and 2.3 nM	–
membrane cofactor protein (MCP; CD46) (protein) CEEPPTFEAMELIGKPKPYYEIGERVDYKCKKGYFYIPPLATHTICDRNHTWLPVSDDACYRETCPYIRDPLNGQAVPANGTYEFGYQMHFICNEGYYLIGEEILYCELKGSVAIWSGKPPICEKVLCTPPPKIKNGKHTFSEVEVFEYLDAVTYSCDPAPGPDPFSLIGESTIYCGDNSVWSRAAPECKVVKCRFPVVENGKQISGFGKKFYYKATVMFECDKGFYLDGSDTIVCDSNSTWDPPVPKCLKVL	–	3.5 min and 2.1 min and 4.5 min	–	16.5 min and 12 min and 9.3 min
